First the molecules themselves.
B1: SEQ ID NO: 199: Caenorhabditis elegans carboxylate reductase (protein)
chain: MVDESDVKSALNGHDRPFTITLAIVLLKIVFFIYDVVTFIPFKIFADPAEKLEKSERVKAEPDNGDPTTPWKNVSAKDGLMNSSFEGIHDLGTQWEECVRRYGNQPCMGTREVLKVHKEKQSNGKIFEKWQMGDYHWRSYAQVDKRVNMIASGLTSLGQQEKEPIILFAETREEWMTTALACMKMNFPIATMYATLGDEAVQFAINEVGAKTIFTSEALISKVKKAMSNGATSIENIIFFDSVDPASRGESVDVDLPFTLLSFDQLLSRGEPYPVPTRSKKDDLAFIMYTSGTTGNPKGVMISHQNIVAVTAGQAFNIVLGPDDRYIGYLPLAHILEVCAEMVVFTKGVRIGYSSAQTLFDRAPKIMKGEHGDCWVLQPTLMACVPAVMDRIFKAVIDEVNANSELFKQLFKTCYERKRSRYEEGYTSFILNKLVFNRIGKLLGGKVRQILSGGAPLSPETQRFMNICFCCPVVQGYGLTETCGGGTIADIHDLSTGTVGPPLTCCEILLQEWAEAGYSPKNDPPQGEILISGPNVALGYFKNDEKTKEEFVKVNGKTFFATGDIGEFREDGSLKIIDRKKDLLKLAHGEYISLGKVETNLLTNPNVDNVCVYGDSNKSFLVALVVPNQKNLTQLASKAGASNDNFEKLCEDKKVVEALQKELAQYGASKLQRVEIPQKIFICHEPWTPASGLLTEALKLKRKNIEKAFRKELDELYK
modifications: Caenorhabditis elegans
notes: Caenorhabditis elegans carboxylate reductase
B2: SEQ ID NO: 198: Pestalotiopsis fici W106-1 carboxylate reductase (protein)
chain: MESYIEKARRYAQPPPPGAPQGVAVPNSKLPGRSAVYRHWRRGDELPDYFDPDLSSGYDMFEQTAKRQPDARCLGYRPYNGSTKSFGPYIWYSYDNVLKRSTDFGKGLAELLEANGVGGRQRPVGLWCANRPEWQFVDLGAMSQSLYSISLYETLGPAATEFLINHAEIPVVCASLEHIPALILAAPRCPSLKLIISLDPLTEEIDAPGTSRKELLSSLAAEKGLQVHDFRDVEKAGQASSRSLNRPRPDDIFTINYTSGTTGNPKGVVLRHSNAVAATVTCLTVYPMRSSDVLCSYLPLAHIYERFVEISAMYGGGSIGYFHGNPLELIDDLKLLRPTIFTSVPRLLNRMGSSIKAATIEQQGVKGALSRYIMETKMANIENDDPAKATNKHMVYDRIWGRKITAALGLDRTVHMMSGSAPLDGGLQQFLRIVFATEIVQGYGSTEMFAICLAQSAGDMSVRNCGGPAACVEVCLLDLPDMGYFSSDQPCPRGELLMRGPNVFSEYYKDDEETSKAFTEDGWFKTGDICAVDELGRFSIIDRRKNLLKLAQGEYISPEHIENVLLAQRPWLAQGYVHGDSAEAHLVGIFGVQPDIFCNFLNRTLGKECKPEDTDQLEAVLQEPEVRSAVVKELAMVGKSAKLNSYEIPRAVRLMIEPFTVENGLLTPTLKLKRPQTAKKFDHLIKEMYAETRKTSTLMAKL
modifications: Pestalotiopsis fici W106-1
notes: Pestalotiopsis fici W106-1 carboxylate reductase
B3: SEQ ID NO: 201: Auxenochlorella protothecoides carboxylate reductase (protein)
chain: MSTFPPLDAQCVVLPEKLNAPGPWTVRRNANFPEALIDSFDGEESHVRTCYDLLEHSVVKYPDSPYLGTRSVDARGAPGPYAWLSYSQVGEARTQIGSGLAHLGVRPGSNVGLFSTNCADWVLVDAALHAYACVSVPLYDTLGADVVQFVNNHAELAAVACSAATLPALLETLPASPTVAVVVVYAAPAGFRMPATPPGSAARLVSLDRLRALGMKHPSPHVPPSPADTALINYTSGTTGMPKGVVLTHANIVASIAGQIRSTAVLATIDATERHISYLPLAHIFERVTYMSVTHRGGAIGFFRGDVLTLLEDIQALRPTYFPSVPRLWNRIYDRIMAQVAASSPVKRRLFETAYAYKKRHMAAGDMTGGPWAGFWNRLVFNKIKQAVGGEVRMMVSGASALSPEVFEFMRIVFDCVVIEGYGMTETTSGATISIPGDPVIGHVGIPTPACEVKLADVPEMGYTNADLPRPRGEICVRGPLRFKEYYKDPENTRETIDEEGWLHTGDIGTWLPGERLKIIDRKKNIFKLSQGEYVAPEKIENIYVRSPYVAQVFVHGDSLRSCIVGVVVPDPEVLLPWAKQRGLPQDLATLCEDEQVKAMIQKSLSEEARVAKLKGFEQVADIVLTPVPFSVETGTMTPTFKLKRPQLREAYAPALEAMYARLPM
modifications: Auxenochlorella protothecoides
notes: Auxenochlorella protothecoides carboxylate reductase
B4: SEQ ID NO: 203: Labilithrix luteola carboxylate reductase (protein, listed as Labilithrix luteola)
chain: MDISRFLDLRIAPRAVFDALEERKTRARFMVPTAPGSNEWRPVTWGAFAQEIRELALFLSTVLSSGDRGAVYAPNRVEWASAALAIQAAGGVIVPIYPASTPDQLSYVASHSDAKVIFVDTAPLLTRLFATWNSTPGVEKIVVLDDGIDVARVYESAREKGIPVPSLDAVERKVLSIGKARGIGAARDQEDPQAFERTMAAISLDQAGMMLYTSGTSGNPKGVPLTHRNVAVNGLDWLKCNYPLLEEGDVDILWLPMSHIFGFGEMCLGNTLGWTSYLADPATCLGRLPEVTPNIFMSVPSHWEKLALMAMHEPTPQARLDKFKAATGGKLRFCLSGGAGLKREVKDFFYSCGVLIVEGYGLTETSPTLTLNRPDAFRFDTVGKTLPSVELRLADDGEILARGASVFGGYHKDPEATREAFTEDGWFKTGDVGRFTDDGFLQIIDRKKDILVTAGGKNVPPANIEIRFQDDPLFAHVVVYGDAKKYLVAGVWLNEEAMSSQLASVPKDQQESARRDLVQKRIDHVNASLASYETIKKFSIIGEPLTVEAGLLTPSLKMRRKKVYEHFHGIFEGMFEDTQGKGAASSTASQGSGA
B5: SEQ ID NO: 200: Tetrahymena thermophila (strain SB210) carboxylate reductase (protein)
chain: MGANQSSRIYNVPIDEKKDGYSQIMRHPKYIDKLEYKPIPEIDNVQDLVLHGYSNSKEMNFFGKKNPVSNEFEYMTYDQVIEQAKQLGSAVKNLQFLKESSEQSNQKMELIGIYSKNRIEWGIADIANSLYGYTMVPLYDSLGPDSISYVLANSEITTCYCSAASVLTLSKTKDLHHLKNIISFDHVSEDLIELVKQRGIVVHLFKDIVEKGSLNVLPLPKLTRDTIFTFCYTSGTTGNPKSAMISHKNILASVTNYDKSDCFLTQDDVHLSYLPLPHIYERFINVYCWFKGTKIAFYSGDVHKIQEDIIASKPTCFSAVPRLLNRFYDAINSKLNQATGFQKILIQHALQTKLENIQKNGVYTHILYDKIIFNKIREQFGGRIRQLVCGSAPTSPKVFDFFKAVLSCSVIEGFGQTELSGVVTIQVKADPKMGNVGGIGPSSELKLEDVPEMEYLSTDKDELGNPKPRGEICVRGYNVFSGYYKDEEKTKEAIDQEGWFHTGDIGEIIPNGGLKIIDRKKNLFKLSQAEYVSPEKVENIYVRARGVQEVYIHGESLYNYCIGIIVPSQEELLKIAAELNISETDIASLCKNQQIISWYIKTIHNLGKHEGLFSFEQPKKIYLEPKSFLVIGCVTNSFKLQRHHAKNYFKNIIQELYNNNNNQ
modifications: Tetrahymena thermophila (strain SB210)
notes: Tetrahymena thermophila (strain SB210) carboxylate reductase
B6: SEQ ID NO: 202: Lichtheimia corymbifera carboxylate reductase (protein)
chain: MVTLTMDKQTIEIPNDVPGESPILRRTPELMDSFVPGINNIYDLFYNGYKLSRDQPCLGERPILDRTTGERAKQFEWQTYEQVAARVDNFGSGLKHVLQQIGESRPKQIPIGIWSVNRPEWHIVDWACAAHSLYVVALYDTLGPDTVEYVVNHAEIQVVVCTKEHVTDLLKLRSKLPQLKAIISFDTLEKEQSQALHAWAEEKDLLLVEFANVEQHGKENPVPHNPAQRSDLACIMYTSGTTGKSKGVMLTQGNFVAAVSGAIYNVKSSPADVGISYLPLGHIYGRVADAFTVAGGASLGFFSGKVDNLLEDMQILKPTLFNTVPRLLNRIYTGIVQSTLQAPGMMKKSTMSLIWNCSLGITDVGPKGALFRKAIATKLENLEQGKGTQHPVYDRLLFDKVRQVLGGRVRFINTGAAPLGKEVMQLLRVTLLADIRESYGATESCASLTMQIEGDPKPGCIGIPAPCNEMKLIDVPEMNYLTTDKPYARGEICVRGYNVSLGYYKDEEKTKEAFDKDGFYHTGDIGMIDERGTFMVIDRKKNIFKLSQGEYIAPEKIENIYARDILVSQIFVYGDSVQSCLVAIVVPDPIELGKLAQEKLPKLTSLSYEELCNNPEVHIAVLERMMENGKRAEMRGFEFVKAIHLDSKPFTVENNLLTPSLKLKRPEARKFFQKEIEQLYQKLSNSSAGSAARL
modifications: Lichtheimia corymbifera JMRC:FSU:9682
notes: Lichtheimia corymbifera carboxylate reductase
B7: SEQ ID NO: 204: Geotrichum candidum carboxylate reductase (protein, listed as Geotrichum candidum)
chain: MSATLNGTQFPPEVAARLRTYPIATDPSVNANTPLITDPVTVKPYKIGKPQAVPVPGSKVDGFSEVYRNAHCPDRLVTTVHPKITTVVEAFDACVSEYKNEKALGERVFDGKTKTWSKIYQYETYGTIAKRRLDIGKGISKVVQDVTGFDSRQTPYCLGLYGPNCSNWILTDLAAQTQSIPTVCLYDTLGPDSTRYIMTLTEMPAIVCSVAHIPFVLNIKDELPNLKVIIAMNPINNPDIVDKPGQSKKDVLTAWAKKSGVELFEFTEVEKIGRESGRGLHLPGPDTVLTINFTSGTTGNPKGVVISQANVLAGTIVARSQSTFNHRGSSGFLSFLPLAHIYERLTIHSVLTSGIPIGFFHGDVAELLDDIATYHPTIVAGVPRIWNRIAGAIRASTIEAPGIAGALSRKAYTTKLARLHETGDYHHPIWDRLWSNKIRTKTGFDQAKTFVTGSAPMARENIELIKVALGVEFVQGYGLTETMGGISVCSPGDNTAGSVGPVAITTEVKLRDLPTMNYSSSDKPFPRGEIMIRGPQVFMGYYKNEEATKGSIDEDGWFSSGDVGMIDDLGRLYVIDRVKNFFKLAQGEYVGPERIEALYQSSSGLVAQIFVEGNSLETYLVGIVGVNPEAYVQFLSHNFKMHIKPTDLEAIKKTFSRKDIRDTFLLELNVHAKDAQLKGYEKIKNVTLAIEPFSVENGTLTPTLKVKRPDAARLFKADVDAMYKEGPVEVKSKL

Seven molecules from patent US10801046B2, “Methods and materials for biosynthesizing multifunctional, multivariate molecules via carbon chain modification” (INVISTA NORTH AMERICA S.A.R.L., priority 2016, dated 2020) can be followed below.

The test can be described thus: In vivo carboxylate reductase screening, substrate consumption by LC-MS, heptanedioate. It is filed as cell-based, Escherichia coli. The conditions noted are these: 541 enzymes screened in vivo. The procedure:
To screen carboxylate reductases in vivo, […] T7- pUC expression vectors was co-transformed into T7 Express lysY/Iq with the phosphopantetheinyl transferase sfp from Bacillus subtilis on a T7-pCDF expression vector. Biological duplicates of the resulting strains were incubated in 0.5 mL of terrific broth containing either 1 g/L heptanedioate or 1 g/L monomethyl heptanedioate and supplemented with 0.4 mM IPTG in 96-well deep well plates. The plates were incubated for 30 h at 30° C. in a shaking incubator. The cells were then pelleted, and culture supernatants from the same strains in media containing either heptanedioate or monomethyl heptanedioate were combined. The combined supernatants were analyzed by LC-MS to determine the concentration of heptanedioate and monomethyl heptanedioate. Carboxylate reductase activity on heptanedioate or monomethyl heptanedioate was reflected by consumption of the respective substrate in the medium.
Consider B1, for which the “substrate preference, heptanedioic acid to 7-oxoheptanoate” value (shortened to “substrate preference, heptanedioic acid”) is on record as “preferred acting upon heptanedioic acid to form 7-oxoheptanoate”.

In the case of B2, the “substrate preference, heptanedioic acid” value is “preferred acting upon heptanedioic acid to form 7-oxoheptanoate”.

As to B3, the “substrate preference, heptanedioic acid” value is given as “preferred acting upon heptanedioic acid to form 7-oxoheptanoate”. As for B4, the “substrate preference, heptanedioic acid” value is given as “preferred acting upon heptanedioic acid to form 7-oxoheptanoate”. For the molecule B5, the “substrate preference, heptanedioic acid” value was “preferred acting upon heptanedioic acid to form 7-oxoheptanoate”. The entry for B6 is “preferred acting upon heptanedioic acid to form 7-oxoheptanoate”. Consider B7, for which the “substrate preference, heptanedioic acid” value was “preferred acting upon heptanedioic acid to form 7-oxoheptanoate”.
